What was measured:
[1] = molecular target: TrkA, on human TF1 erythroleukemia cells (human (endogenous in TF1)) (UniProt P04629)
[2] = molecular target: p75NTR, endogenous in rat primary hippocampal neurons (rat (endogenous in rat hippocampal neurons)) (UniProt P07174)
UniProt P07174, sequence (P07174 30-425): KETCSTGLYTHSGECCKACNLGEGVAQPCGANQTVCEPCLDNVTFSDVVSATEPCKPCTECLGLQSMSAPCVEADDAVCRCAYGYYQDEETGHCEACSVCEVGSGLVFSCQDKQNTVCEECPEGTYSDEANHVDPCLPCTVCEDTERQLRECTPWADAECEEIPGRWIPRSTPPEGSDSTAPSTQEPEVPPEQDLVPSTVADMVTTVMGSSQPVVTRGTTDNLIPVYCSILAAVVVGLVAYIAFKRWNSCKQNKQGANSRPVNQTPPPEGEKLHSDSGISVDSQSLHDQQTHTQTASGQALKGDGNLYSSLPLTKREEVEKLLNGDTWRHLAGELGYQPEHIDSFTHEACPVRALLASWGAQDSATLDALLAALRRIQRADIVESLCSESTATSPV

UniProt P04629, sequence (P04629 33-796): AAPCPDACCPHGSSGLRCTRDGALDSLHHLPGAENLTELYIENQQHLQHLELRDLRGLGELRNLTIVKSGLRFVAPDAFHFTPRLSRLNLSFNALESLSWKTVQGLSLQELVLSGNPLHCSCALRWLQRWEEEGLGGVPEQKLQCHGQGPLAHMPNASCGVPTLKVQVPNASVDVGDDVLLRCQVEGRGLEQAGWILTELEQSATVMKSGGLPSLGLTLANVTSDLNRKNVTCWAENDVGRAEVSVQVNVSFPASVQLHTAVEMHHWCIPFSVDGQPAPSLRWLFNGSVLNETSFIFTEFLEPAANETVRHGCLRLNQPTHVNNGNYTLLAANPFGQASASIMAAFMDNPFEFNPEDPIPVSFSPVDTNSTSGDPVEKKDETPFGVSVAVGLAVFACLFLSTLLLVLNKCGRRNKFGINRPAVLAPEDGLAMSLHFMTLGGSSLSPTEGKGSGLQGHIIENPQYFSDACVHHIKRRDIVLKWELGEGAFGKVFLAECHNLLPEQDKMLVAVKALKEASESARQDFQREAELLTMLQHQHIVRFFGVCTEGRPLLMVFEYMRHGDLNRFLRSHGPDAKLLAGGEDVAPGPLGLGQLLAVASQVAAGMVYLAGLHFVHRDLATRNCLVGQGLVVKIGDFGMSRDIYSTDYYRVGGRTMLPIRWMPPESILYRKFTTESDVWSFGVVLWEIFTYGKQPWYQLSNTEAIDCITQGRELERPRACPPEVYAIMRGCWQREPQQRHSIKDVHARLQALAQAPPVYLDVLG

Row | proliferative index, proliferation of human TF1 cells expressing TrkA [1] [ng/mL] | c-jun Ser63 phosphorylation in hippocampal neurons (Western blot, site-specific anti-phospho c-jun antibody), reduction with respect to hNGF or hNGFP61S [2] [%] | Substance
1 | 1.68 |  | hNGFP61S, human NGF tagged with the single-residue epitope P61S (ligand)
2 | 1.89 | 30 | hNGFP61S/R100E, double mutant of human NGF ("painless" hNGF) (ligand)
3 | 1.28 | 30 | hNGFR100E, human NGF mutant R100E (from UniProt P01138 122-241) (ligand)
